From patent US20230340091A1 (MOR RESEARCH APPLICATIONS, published 2023) come the findings set out here.

The target in this assay is recombinant human alpha-synuclein preformed fibrils (PFF) (human, UniProt P37840 1-140). Nature of the assay: ELISA on coated alpha-synuclein PFF, Fab in serial dilution. In general terms: ELISA stands for enzyme-linked immunosorbent assay.

Description: A standard ELISA assay was performed using alpha-synuclein PFFs as the coating protein.

B1: PMS213 (Fab 6), Fab format (Fab, V domains shown)
VH: QVQLVQSGPGLVKPSETLSLICTVSGGSISSSNYYWGWVRQPPGKGLEWIGTIYYSGTTYYNPSLKSRVTISVDTSKNQFSLELSSVTAADTAVYYCARLGRGSAFDIWGQGTMVTVSS
VL: SVVTQPPSLSAAPGQSITISCSGGGSNIGRNSVSWHRQFPGAAPELLAFDTFRRPSGVPDRFSGSKSGSSATLVITGLQTGDEADYYCGTWDNSLDSGVFGGGTKVTVLR
notes: Fab expressed in E. coli with His and myc tags on the heavy chain
For the molecule B1, the binding result is “no binding”.

B2: PMS209 (Fab 2), Fab format (Fab, V domains shown)
VH: QVQLQESGPGLVKPSETLSLTCTVSGGSISSSSYYWGWIRQPPGKGLEWIGSIYYSGSTYYNPSLKSRVTISVDTSKNQFSLKLSSVTAADTAVYYCARLRRYDSSGFFFDYWGQGTLVTVSS
VL: SVVTQPPSVSAAPGQKVTISCSGSSSNIGNNYVSWHQQLPGTAPKLLIYDNDRRPSGIPDRFSGSKSGTSATLAITGLQTGDEADYYCGTWDSSLSGGVFGGGTKVTVLS
As to B2, the binding result is given as “no binding”.
